Data on one protein can be found in paper PMC11398462 (bioRxiv, 2024).

This series deals with the molecule itself. The series is described as follows: SEC. On the technique in general: SEC sorts molecules by how far they enter the pores of the column.

B1: Lipo-YcjN (recombinantly overexpressed lipidated YcjN, heterogeneously diacylated at cysteine 21) (natural protein, E. coli K-12, UniProt P76042 21-430, looked up)
chain: CKEENKTNVSIEFMHSSVEQERQAVISKLIARFEKENPGITVKQVPVEEDAYNTKVITLSRSGSLPEVIETSHDYAKVMDKEQLIDRKAVATVISNVGEGAFYDGVLRIVRTEDGSAWTGVPVSAWIGGIWYRKDVLAKAGLEEPKNWQQLLDVAQKLNDPANKKYGIALPTAESVLTEQSFSQFALSNQANVFNAEGKITLDTPEMMQALTYYRDLTANTMPGSNDIMEVKDAFMNGTAPMAIYSTYILPAVIKEGDPKNVGFVVPTEKNSAVYGMLTSLTITAGQKTEETEAAEKFVTFMEQADNIADWVMMSPGAALPVNKAVVTTATWKDNDVIKALGELPNQLIGELPNIQVFGAVGDKNFTRMGDVTGSGVVSSMVHNVTVGKADLSTTLQASQKKLDELIEQH
modifications: cysteine 21 diacylated, acyl chain compositions [16:0, 16:0] and [16:0, 18:1]
In the case of B1, the binding result is reported as “binds”.
